Test results reported in article PMC8440498.

Molecular target: Aβ1-40 (human)
Assay: ELISA

Kd: 2 nM
Substance: clusterin (human plasma apolipoprotein J) (from UniProt P10909 23-227; P10909 228-449) (natural protein)
